Source: the supplement of paper PMC10724198
± gives the standard deviation of the averaged measurements.

System: Saccharomyces cerevisiae
Assay: protein stability index of tFT-peptide fusion (C-terminal peptide) (PSI (0-1 scale)); higher = more stable (slower turnover)
Conditions: genetic background: wild type; temperature: 30 C
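Note: PSI is a weighted mean of sequencing reads over stability bins, variants kept only with over 10 reads, mCherry proximal and sfGFP distal, peptide attached via GGGS linker.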

| Sequence | protein stability index |
| --- | --- |
| DPCWLEFRESGG | 0.704 ± 0.12 |
| VFSCWQFAGGGY | 0.69 ± 0.037 |
| YLCLPPALISRI | 0.656 ± 0.029 |
| GRGRLLYWEKWL | 0.66 ± 0.03 |
| LVVSLGLFLLRH | 0.549 ± 0.045 |
| VVCKVLVTGIFD | 0.604 ± 0.0062 |
| LVCLLFTNKVMH | 0.599 ± 0.011 |
| SGSSRVGWLEGW | 0.676 ± 0.022 |
| YEPNYKEKKTQY | 0.69 ± 0.017 |
| TVYSPAYSIIHQ | 0.584 ± 0.053 |
| LRLSCGDRFRVG | 0.557 ± 0.019 |
| FLSFECRFPFQW | 0.795 ± 0.069 |
| TALQNAAPRTAS | 0.73 ± 0.11 |
| DLIKCPTNMVRL | 0.646 ± 0.068 |
| GCGFRGVYSCWV | 0.678 ± 0.078 |
| RSCAGGVGAVFF | 0.758 ± 0.055 |
| SGGCVGLAVAGG | 0.702 ± 0.056 |
| PPLSPTLTIPPP | 0.698 ± 0.079 |
| LVLRLLRGFLPK | 0.681 ± 0.014 |
| NFCSSGLPLLII | 0.648 ± 0.022 |
| PSPPRAPSTPLI | 0.744 ± 0.06 |
| RCERKTGHHYRT | 0.637 ± 0.072 |
| DEFRVALGSVTC | 0.65 ± 0.12 |
| GRGGPSGAKAHR | 0.684 ± 0.026 |
| ASSPSLSSPPTL | 0.7106 ± 0.0051 |
| RPVSALESPQAG | 0.727 ± 0.059 |

| Sequence | protein stability index |
| --- | --- |
| APPPNPPRPSSR | 0.754 ± 0.032 |
| SSWWGARVARRG | 0.756 ± 0.041 |
| EWGWGRIVNGRE | 0.6869 ± 0.0032 |
| ARSSHVLQRSKV | 0.634 ± 0.018 |
| SFYFAPLLSPFA | 0.597 ± 0.036 |
| CQQIKKNKKIKN | 0.661 ± 0.0026 |
| PASRNWGLNPDT | 0.677 ± 0.025 |
| SSFGIVWKKDAI | 0.736 ± 0.053 |
| RLPLYAIPPFPP | 0.636 ± 0.0091 |
| PPQRNFPARPTP | 0.6988 ± 0.0034 |
| TCLIFTCVLKFR | 0.485 ± 0.098 |
| GGAWRGWCVGVR | 0.644 ± 0.1 |
| ARGIVAHKVTQP | 0.65 ± 0.11 |
| IATMSVAGGPRL | 0.677 ± 0.015 |
| NKNGGDLCLGSS | 0.652 ± 0.049 |
| AIILGPPIGWTK | 0.757 ± 0.026 |
| TFCPPSRYRPRA | 0.709 ± 0.008 |
| APVGYNTVASAC | 0.685 ± 0.042 |
| PSPPSPPPAPPP | 0.643 ± 0.1 |
| KGKRQNIERCRK | 0.644 ± 0.099 |
| ESRGKKPDTYTQ | 0.707 ± 0.074 |
| TTKNTSIKTKLK | 0.67 ± 0.026 |
| WSIVVDDISWSV | 0.698 ± 0.013 |
| PPACPSSRIPVF | 0.615 ± 0.041 |
| FSLPRHFRLYRR | 0.713 ± 0.036 |
| SSLSFHPLPLAP | 0.695 ± 0.03 |

| Sequence | protein stability index |
| --- | --- |
| LSIFFCRCFSSF | 0.59 ± 0.021 |
| ESKKYQQDNITR | 0.608 ± 0.039 |
| TKHCRFCKSGFV | 0.7133 ± 0.0063 |
| LLCPSPPSDIPP | 0.661 ± 0.016 |
| RESTKNETSGKK | 0.632 ± 0.04 |
| SCDLRALALLGG | 0.707 ± 0.07 |
| FEVSGYRNGRAL | 0.694 ± 0.0074 |
| DLMFSLFPLSFF | 0.704 ± 0.0076 |
| WGGGGLRVSCGT | 0.687 ± 0.093 |
| SSNKSKNNHSNM | 0.688 ± 0.031 |
| PLPPPSLPPSPS | 0.699 ± 0.036 |
| VTKAALADLRHM | 0.609 ± 0.016 |
| LLQLLGGFVFSA | 0.67 ± 0.018 |
| VCRGRGVEGIGW | 0.695 ± 0.12 |
| DGNDSILTKLPL | 0.714 ± 0.021 |
| WLAGKAGASHRG | 0.656 ± 0.0079 |
| VWRSAMIRVPPC | 0.608 ± 0.054 |
| QGLSFVSVSPRP | 0.795 ± 0.029 |
| HPTHTPPSTHRD | 0.7316 ± 0.0053 |
| CTRTREDPKIGI | 0.714 ± 0.024 |
| PPSPRPALPLSL | 0.762 ± 0.039 |
| LFANGSGSSTSR | 0.715 ± 0.031 |
| NCKLAVSPRPLR | 0.692 ± 0.051 |
| DGGFAAPDVIGA | 0.682 ± 0.026 |
| IDSKSPTHPLHQ | 0.71 ± 0.059 |
| GGGLSWARRSPS | 0.683 ± 0.069 |

| Sequence | protein stability index |
| --- | --- |
| GLPPLAMPALSI | 0.72 ± 0.057 |
| PPPPPPALPEYQ | 0.708 ± 0.01 |
| PERWFPSTPSLP | 0.702 ± 0.031 |
| PPLPPSPPRSPP | 0.552 ± 0.029 |
| TPPSHTVGIWAS | 0.683 ± 0.039 |
| PPTANLAHSSHP | 0.693 ± 0.014 |
| RLPAVPSHPGLL | 0.729 ± 0.037 |
| DSKDLTPATQVS | 0.699 ± 0.013 |
| LPLPIPPFPCPP | 0.686 ± 0.017 |
| RKKNEKKEDNKK | 0.747 ± 0.12 |
| YCGPSAGREGGG | 0.771 ± 0.081 |
| GGCAGRGGVVVR | 0.6904 ± 0.0029 |
| PDHFPSPALPTH | 0.702 ± 0.0097 |
| RGRGRVRPRRKR | 0.6831 ± 0.0011 |
| IKIKKKKKKRHR | 0.651 ± 0.059 |
| KSRRTTMINIRC | 0.668 ± 0.016 |
| DRVMTLRLTVNP | 0.691 ± 0.03 |
| THSGRVRIVSFL | 0.654 ± 0.12 |
| LWLSAPDRREPF | 0.684 ± 0.041 |
| VRSCGTAGKGVT | 0.615 ± 0.029 |
| SPPRSVSVGVHK | 0.637 ± 0.03 |
| EKGRSGVNILRV | 0.653 ± 0.011 |
| KWNITKEQENSR | 0.681 ± 0.018 |
